Reference: patent US20240002795A1 (published 2024)

T1: RET wild type peptide on HLA-DPA1*01:03 / HLA-DPB1*04:01 (human)
T1 peptide: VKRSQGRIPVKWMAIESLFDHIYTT

T2: RET M918T peptide on HLA-DPA1*01:03 / HLA-DPB1*04:01 (human)
T2 peptide: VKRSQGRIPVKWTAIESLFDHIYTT

T3: RET M918T peptide on HLA-DPA1*01:03 / HLA-DPB1*04:02 (human)
T3 peptide: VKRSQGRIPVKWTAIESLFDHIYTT

T4: RET wild type peptide on HLA-DPA1*01:03 / HLA-DPB1*04:02 (human)
T4 peptide: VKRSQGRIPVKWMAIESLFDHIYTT

B1: TCR-ID-3 (TCR, V domains shown)
Valpha: DQQVKQNSPSLSVQEGRISILNCDYTNSMFDYFLWYKKYPAEGPTFLISISSIKDKNEDGRFTVFLNKSAKHLSLHIVPSQPGDSAVYFCAASGHGGSQGNLIFGKGTKLSVKP
Vbeta: GAGVSQSPRYKVAKRGQDVALRCDPISGHVSLFWYQQALGQGPEFLTYFQNEAQLDKSGLPSDRFFAERPEGSVSTLKIQRTQQEDSAVYLCASSLRFLGQGSYEQYFGPGTRLTVT
B2: TCR-ID-2 (TCR, V domains shown)
Valpha: AQKITQTQPGMFVQEKEAVTLDCTYDTSDQSYGLFWYKQPSSGEMIFLIYQGSYDEQNATEGRYSLNFQKARKSANLVISASQLGDSAMYFCAMREGDGDDMRFGAGTRLTVKP
Vbeta: EPEVTQTPSHQVTQMGQEVILRCVPISNHLYFYWYRQILGQKVEFLVSFYNNEISEKSEIFDDQFSVERPDGSNFTLKIRSTKLEDSAMYFCASSSQIQTVMNTEAFFGQGTRLTVV
B3: TCR-ID-1 (TCR, V domains shown)
Valpha: GNSVTQMEGPVTLSEEAFLTINCTYTATGYPSLFWYVQYPGEGLQLLLKATKADDKGSNKGFEATYRKETTSFHLEKGSVQVSDSAVYFCALSENAGNQFYFGTGTSLTVIP
Vbeta: NAGVTQTPKFQVLKTGQSMTLQCAQDMNHEYMSWYRQDPGMGLRLIHYSVGAGITDQGEVPNGYNVSRSTTEDFPLRLLSAAPSQTSVYFCASSRGNTQYFGPGTRLTVL

What was measured:
Assay in all cases: activation reporter or marker
[1] = biological target: T1, RET wild type peptide on HLA-DPA1*01:03 …
[2] = biological target: T2, RET M918T peptide on HLA-DPA1*01:03 / …
[3] = biological target: T3, RET M918T peptide on HLA-DPA1*01:03 / …
[4] = biological target: T4, RET wild type peptide on HLA-DPA1*01:03 …

binding result [1]	binding result [2]	binding result [3]	binding result [4]	Binder
no recognition	recognises	recognises		B1
no recognition	recognises	recognises	no recognition	B2
no recognition	recognises	recognises	no recognition	B3
